T1: human OX40 ECD-His (human, UniProt P43489 29-216)
T1 construct: also called human OX40-his; TNFRSF4(OX40)
T1 sequence: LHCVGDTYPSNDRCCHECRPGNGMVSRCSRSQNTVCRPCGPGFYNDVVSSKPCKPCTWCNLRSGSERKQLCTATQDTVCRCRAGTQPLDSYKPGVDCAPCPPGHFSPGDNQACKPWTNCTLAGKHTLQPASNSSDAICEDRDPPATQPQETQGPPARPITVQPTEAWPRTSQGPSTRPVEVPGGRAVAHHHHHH

T2: TNFRSF1A (CD120a), Sino Biological (UniProt P19438 30-211, limits assumed)
T2 construct: also called TNFRSF1A(CD12.a)
T2 sequence (looked up): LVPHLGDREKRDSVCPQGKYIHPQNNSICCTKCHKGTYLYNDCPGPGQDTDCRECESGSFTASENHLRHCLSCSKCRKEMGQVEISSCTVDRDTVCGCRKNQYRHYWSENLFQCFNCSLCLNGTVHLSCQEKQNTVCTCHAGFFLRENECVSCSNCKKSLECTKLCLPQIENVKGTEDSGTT

T3: TNFRSF1B (CD120b), Sino Biological (UniProt P20333 23-257)
T3 sequence (looked up): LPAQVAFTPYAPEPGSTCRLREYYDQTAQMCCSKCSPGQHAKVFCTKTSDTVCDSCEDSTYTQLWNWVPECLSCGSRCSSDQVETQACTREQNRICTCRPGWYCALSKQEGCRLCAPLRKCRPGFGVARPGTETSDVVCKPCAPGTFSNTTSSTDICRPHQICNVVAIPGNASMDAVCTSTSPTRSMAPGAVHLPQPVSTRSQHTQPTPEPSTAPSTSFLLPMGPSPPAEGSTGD


Tests used:
[1] = target: T4, full-length human CD137 on cells (Hut78/huCD137, HEK293 transfectants, JK-NFKB-CD137) (human, UniProt Q07011 24-255); assay: flow cytometry on Hut78/huCD137 cells: serially diluted antibody against human CD137 ligand ECD-mIgG2a, bound ligand detected with goat anti-murine IgG-APC [panel B]
T4 construct: also called native CD137; TNFRSF9

human OX40 ECD-His = target: T1, human OX40 ECD-His; assay: antigen ELISA, antigens coated at 10 µg/ml
human CD40 ECD-mIgG2a = target: T5, human CD40 ECD-mIgG2a (human); assay: antigen ELISA, antigens coated at 10 µg/ml
T5 construct: also called TNFRSF5(CD40)

[2] = target: T2, TNFRSF1A (CD120a), Sino Biological; assay: antigen ELISA, antigens coated at 10 µg/ml
[3] = target: T3, TNFRSF1B (CD120b), Sino Biological; assay: antigen ELISA, antigens coated at 10 µg/ml
human CD137 ECD-mIgG2a [4] = target: T6, human CD137 ECD-mIgG2a (human); assay: SPR, Format A-CEAxCD137; Format A-CEAxCD137, not Fc fusion VH
T6 construct: ECD 24-183 of huCD137 fused to mouse IgG2a Fc; also called huCD137-mIgG2a; huCD137

[5] = target: T4, full-length human CD137 on cells …; assay: flow cytometry on Hut78/huCD137 cells
human CD137 ECD-mIgG2a [6] = target: T6, human CD137 ECD-mIgG2a; assay: SPR, A-CEAxCD137 format
Protocol: Characterization of anti-huCD137 VH domain antibodies were made by SPR assays using BIAcore™ T-200 (GE Life Sciences). Briefly, anti-human IgG (Fc) antibody was immobilized on an activated CM5 biosensor chip (Cat.: BR100839, GE Life Sciences). Anti-huCD137 domain antibodies were flowed over the chip surface and captured by anti-human IgG (Fc) antibody. […] The equilibrium dissociation constant (KD) was calculated as the ratio koff/kₒₙ.
Affinity comparison on CD137 affinity matured variants was made by SPR assays using BIAcore™ T-200 (GE Life Sciences) and flow cytometry as described.

human CD137 ECD-mIgG2a [7] = target: T6, human CD137 ECD-mIgG2a; assay: SPR, Format A-CEAxCD137

T4 sequence (Q07011 24-255 limits assumed): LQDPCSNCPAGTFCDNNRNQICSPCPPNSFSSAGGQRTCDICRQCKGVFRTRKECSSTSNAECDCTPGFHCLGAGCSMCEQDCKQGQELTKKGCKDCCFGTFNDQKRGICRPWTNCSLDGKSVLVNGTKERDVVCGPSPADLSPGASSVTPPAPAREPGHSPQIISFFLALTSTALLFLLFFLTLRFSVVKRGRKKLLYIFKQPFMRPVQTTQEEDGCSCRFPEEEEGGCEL
T6 sequence (chain, as listed by the source limits assumed): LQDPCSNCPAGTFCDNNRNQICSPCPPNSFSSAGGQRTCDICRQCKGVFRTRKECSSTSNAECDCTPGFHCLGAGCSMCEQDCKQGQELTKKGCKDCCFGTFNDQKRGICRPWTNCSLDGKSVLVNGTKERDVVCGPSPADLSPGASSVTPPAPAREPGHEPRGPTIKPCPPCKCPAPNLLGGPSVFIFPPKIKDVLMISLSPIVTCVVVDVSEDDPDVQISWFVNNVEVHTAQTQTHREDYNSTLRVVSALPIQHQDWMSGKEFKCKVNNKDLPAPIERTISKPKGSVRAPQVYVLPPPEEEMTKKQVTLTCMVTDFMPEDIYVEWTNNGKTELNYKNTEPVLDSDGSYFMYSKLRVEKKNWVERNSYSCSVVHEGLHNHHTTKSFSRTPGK
T5 sequence (chain, as listed by the source limits assumed): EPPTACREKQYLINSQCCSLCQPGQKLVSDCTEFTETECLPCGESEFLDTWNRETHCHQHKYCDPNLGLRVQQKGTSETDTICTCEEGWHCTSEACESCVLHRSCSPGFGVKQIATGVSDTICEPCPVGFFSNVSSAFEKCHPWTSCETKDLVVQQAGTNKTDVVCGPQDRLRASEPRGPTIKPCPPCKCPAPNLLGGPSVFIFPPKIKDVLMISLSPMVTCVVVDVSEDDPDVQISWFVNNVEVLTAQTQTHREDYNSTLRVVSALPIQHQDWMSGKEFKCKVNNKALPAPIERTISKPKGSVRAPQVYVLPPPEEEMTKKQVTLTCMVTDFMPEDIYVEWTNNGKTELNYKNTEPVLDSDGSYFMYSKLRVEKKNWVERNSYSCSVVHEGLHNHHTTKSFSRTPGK

IC50 (read off the curve) [1] [µg/mL] | binding result (human OX40 ECD-His) | binding result (human CD40 ECD-mIgG2a) | binding result [2] | binding result [3] | Kd (human CD137 ECD-mIgG2a [4]) [nM] | EC50 [5] [µg/mL] | Kd (human CD137 ECD-mIgG2a [6]) [nM] | Kd (human CD137 ECD-mIgG2a [7]) [nM] | Binder
~0.03 | no binding (tested: not shown) | no binding (tested: not shown) | no binding (tested: not shown) | no binding (tested: not shown) | – | – | – | – | Urelumab analog (antibody, human IgG4 S228P, kappa, V domains shown, also called Urelumab analog antibody) VH: QVQLQQWGAGLLKPSETLSLTCAVYGGSFSGYYWSWIRQSPEKGLEWIGEINHGGYVTYNPSLESRVTISVDTSKNQFSLKLSSVTAADTAVYYCARDYGPGNYDWYFDLWGRGTLVTVSS VL: EIVLTQSPATLSLSPGERATLSCRASQSVSSYLAWYQQKPGQAPRLLIYDASNRATGIPARFSGSGSGTDFTLTISSLEPEDFAVYYCQQRSNWPPALTFGGGTKVEIKR
– | – | – | – | – | 255 | 0.52 | 289 | – | A-CEAxCD137-M3 (Format A with BGA-4712-M3) (bispecific antibody, human IgG1, kappa) heavy: QVQLVQSGAEVKKPGASVKVSCKASGYIFTSYYLHWVRQAPGQGLEWIGYINPQTGKTSYAQKFQGRVTMTRDTSTSTVYMELSSLRSEDTAVYYCAREYGNYNYPLDYWGQGTLVTVSSASTKGPSVFPLAPSSKSTSGGTAALGCLVKDYFPEPVTVSWNSGALTSGVHTFPAVLQSSGLYSLSSVVTVPSSSLGTQTYICNVNHKPSNTKVDKKVEPKSCDKTHTCPPCPAPPAAGPSVFLFPPKPKDTLMISRTPEVTCVVVDVSHEDPEVKFNWYVDGVEVHNAKTKPREEQYNSTYRVVSVLTVLHQDWLNGKEYKCKVSNKALAAPIEKTISKAKGQPREPQVYTLPPSREEMTKNQVSLTCLVKGFYPSDIAVEWESNGQPENNYKTTPPVLDSDGSFFLYSKLTVDKSRWQQGNVFSCSVMHEALHNHYTQKSLSLSPGKGGGGSEVQLLESGGGLVQPGGSLRLSCAASGFTLSAEDVGWVRQAPGKGLEWVSAILDFGGSTYYAESVKGRFTISRDNAKNTLYLQMSSLRAEDTAVYYCARVVYHAGGGVTFDYWGQGTLVTVSS light: DIQMTQSPSSLSASVGDRVTITCRASENQYGYLAWYQQKPGKVPKLLIYNYKNLVEGVPSRFSGSGSGTDFTLTISSLQPEDVATYYCQHHLGTPYTFGQGTKVEIKRTVAAPSVFIFPPSDEQLKSGTASVVCLLNNFYPREAKVQWKVDNALQSGNSQESVTEQDSKDSTYSLSSTLTLSKADYEKHKVYACEVTHQGLSSPVTKSFNRGEC
– | – | – | – | – | – | 3.23 | 649 | 669 | Format A-BGA-7556 (bispecific antibody, human IgG1, kappa, also called BGA-7556 Format A-CEAxCD137) heavy: QVQLVQSGAEVKKPGASVKVSCKASGYIFTSYYLHWVRQAPGQGLEWIGYINPQTGKTSYAQKFQGRVTMTRDTSTSTVYMELSSLRSEDTAVYYCAREYGNYNYPLDYWGQGTLVTVSSASTKGPSVFPLAPSSKSTSGGTAALGCLVKDYFPEPVTVSWNSGALTSGVHTFPAVLQSSGLYSLSSVVTVPSSSLGTQTYICNVNHKPSNTKVDKKVEPKSCDKTHTCPPCPAPPAAGPSVFLFPPKPKDTLMISRTPEVTCVVVDVSHEDPEVKFNWYVDGVEVHNAKTKPREEQYNSTYRVVSVLTVLHQDWLNGKEYKCKVSNKALAAPIEKTISKAKGQPREPQVYTLPPSREEMTKNQVSLTCLVKGFYPSDIAVEWESNGQPENNYKTTPPVLDSDGSFFLYSKLTVDKSRWQQGNVFSCSVMHEALHNHYTQKSLSLSPGKGGGGSEVQLLESGGGLVQPGGSLRLSCAASGFTLSAEDVGWVRQAPGKGLEWVSAILDFGGSTYYAESVKGRFTISRDNAKNTLYLQMSSLRAEDTAVYYCARVVYHAGGGVTFDYRGQGTQVTVSS light: DIQMTQSPSSLSASVGDRVTITCRASENQYGYLAWYQQKPGKVPKLLIYNYKNLVEGVPSRFSGSGSGTDFTLTISSLQPEDVATYYCQHHLGTPYTFGQGTKVEIKRTVAAPSVFIFPPSDEQLKSGTASVVCLLNNFYPREAKVQWKVDNALQSGNSQESVTEQDSKDSTYSLSSTLTLSKADYEKHKVYACEVTHQGLSSPVTKSFNRGEC
